This note sets out measurements from paper PMC10849712 (bioRxiv, 2024).

For experiment [1], the target named is native HB3VAR03 PfEMP1 (CIDRα1.4) on P. falciparum-infected erythrocytes (Plasmodium falciparum HB3 (HB3VAR03), UniProt A0A0L7KL67, strain). Briefly: flow cytometry on cells.
Experiment [2] deals with native IT4VAR18 PfEMP1 (CIDRα1.6) on P. falciparum-infected erythrocytes (Plasmodium falciparum, clone IT4 …, UniProt A3R6S2, strain). Briefly: flow cytometry on cells. On the technique in general: Flow cytometry measures light scatter and fluorescence of single cells or particles in a stream.
In experiment [3] the target is native IT4VAR19 PfEMP1 (CIDRα1.1) on P. falciparum-infected erythrocytes (Plasmodium falciparum, clone IT4 …, UniProt A3R6S3, strain). Briefly: flow cytometry on cells.
Experiment [4] has as its target T1, three-domain protein of IT4VAR22 PfEMP1 (NTSA-DBLα-CIDRα1.7-DBLβ) (Plasmodium falciparum IT4 (IT4VAR22), strain).
T1 chain: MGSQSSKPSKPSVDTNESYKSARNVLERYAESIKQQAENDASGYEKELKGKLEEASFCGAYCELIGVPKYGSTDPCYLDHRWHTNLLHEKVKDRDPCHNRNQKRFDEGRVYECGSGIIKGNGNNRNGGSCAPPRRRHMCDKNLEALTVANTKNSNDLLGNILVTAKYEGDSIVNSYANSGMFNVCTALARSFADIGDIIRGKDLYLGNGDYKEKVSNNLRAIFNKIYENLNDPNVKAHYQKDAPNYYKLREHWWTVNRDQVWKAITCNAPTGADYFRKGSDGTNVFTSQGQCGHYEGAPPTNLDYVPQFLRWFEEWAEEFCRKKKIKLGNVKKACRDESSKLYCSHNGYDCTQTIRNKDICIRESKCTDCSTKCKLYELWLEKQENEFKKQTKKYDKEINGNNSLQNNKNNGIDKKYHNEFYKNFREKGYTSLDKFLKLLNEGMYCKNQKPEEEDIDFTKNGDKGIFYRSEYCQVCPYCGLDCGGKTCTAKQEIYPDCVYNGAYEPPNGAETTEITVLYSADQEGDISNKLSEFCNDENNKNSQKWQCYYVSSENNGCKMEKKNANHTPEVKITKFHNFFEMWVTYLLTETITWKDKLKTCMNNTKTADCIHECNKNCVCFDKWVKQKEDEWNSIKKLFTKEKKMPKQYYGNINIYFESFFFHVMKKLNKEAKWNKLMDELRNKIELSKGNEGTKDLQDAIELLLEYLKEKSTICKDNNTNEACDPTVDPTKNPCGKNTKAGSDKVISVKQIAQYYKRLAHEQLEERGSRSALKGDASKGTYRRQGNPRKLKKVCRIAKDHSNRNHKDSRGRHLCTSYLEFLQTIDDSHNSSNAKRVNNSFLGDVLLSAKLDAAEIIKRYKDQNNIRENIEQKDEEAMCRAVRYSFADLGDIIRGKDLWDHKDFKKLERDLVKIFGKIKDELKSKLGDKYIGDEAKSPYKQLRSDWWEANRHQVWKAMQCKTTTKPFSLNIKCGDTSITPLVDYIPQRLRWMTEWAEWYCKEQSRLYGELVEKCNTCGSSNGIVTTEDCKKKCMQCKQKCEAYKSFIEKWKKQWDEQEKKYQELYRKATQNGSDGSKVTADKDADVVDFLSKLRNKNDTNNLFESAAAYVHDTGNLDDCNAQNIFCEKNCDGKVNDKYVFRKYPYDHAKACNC
Briefly: cryo-EM structure.

The target in experiment [5] is T2, three-domain protein of HB3VAR03 PfEMP1 (NTS-DBLα-CIDRα1.4-DBLβ) (Plasmodium falciparum HB3 (HB3VAR03), strain).
T2 chain: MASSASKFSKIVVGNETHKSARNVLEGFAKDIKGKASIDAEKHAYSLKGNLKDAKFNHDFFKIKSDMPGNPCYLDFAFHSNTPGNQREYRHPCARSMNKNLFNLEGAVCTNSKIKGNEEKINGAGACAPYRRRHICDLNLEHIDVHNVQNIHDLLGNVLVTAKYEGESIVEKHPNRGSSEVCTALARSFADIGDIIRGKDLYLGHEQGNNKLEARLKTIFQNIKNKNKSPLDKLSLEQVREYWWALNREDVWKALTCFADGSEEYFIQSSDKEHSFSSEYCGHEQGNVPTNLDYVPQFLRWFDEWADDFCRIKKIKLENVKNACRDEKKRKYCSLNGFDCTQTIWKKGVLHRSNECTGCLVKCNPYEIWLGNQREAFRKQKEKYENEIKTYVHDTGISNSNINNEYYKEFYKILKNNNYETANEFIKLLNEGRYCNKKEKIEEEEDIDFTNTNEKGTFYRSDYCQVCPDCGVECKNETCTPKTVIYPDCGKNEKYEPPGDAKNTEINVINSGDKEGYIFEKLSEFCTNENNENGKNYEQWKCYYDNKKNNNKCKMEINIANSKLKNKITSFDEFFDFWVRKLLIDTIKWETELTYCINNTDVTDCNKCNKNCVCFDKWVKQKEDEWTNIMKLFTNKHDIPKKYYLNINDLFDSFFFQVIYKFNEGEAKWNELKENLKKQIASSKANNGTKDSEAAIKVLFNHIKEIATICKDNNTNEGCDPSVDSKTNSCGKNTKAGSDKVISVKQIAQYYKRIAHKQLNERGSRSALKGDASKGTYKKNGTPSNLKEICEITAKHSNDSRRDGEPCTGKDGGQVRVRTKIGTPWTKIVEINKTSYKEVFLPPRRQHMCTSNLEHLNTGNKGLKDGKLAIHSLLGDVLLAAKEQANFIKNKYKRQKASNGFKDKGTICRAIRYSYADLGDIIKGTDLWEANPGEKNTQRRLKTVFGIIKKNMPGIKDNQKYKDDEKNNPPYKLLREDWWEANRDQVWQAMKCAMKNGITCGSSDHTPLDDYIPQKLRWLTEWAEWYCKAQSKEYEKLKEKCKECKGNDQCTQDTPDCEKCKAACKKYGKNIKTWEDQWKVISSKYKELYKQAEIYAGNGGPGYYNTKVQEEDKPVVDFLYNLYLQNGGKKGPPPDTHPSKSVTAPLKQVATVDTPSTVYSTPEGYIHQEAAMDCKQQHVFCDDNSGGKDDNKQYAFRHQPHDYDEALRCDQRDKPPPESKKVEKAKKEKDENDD
Briefly: cryo-EM structure.

In experiment [6] the target is T3, single CIDRα1.4 domain of HB3VAR03 PfEMP1 (crystallised with C7 Fab) (Plasmodium falciparum HB3 (HB3VAR03), strain).
T3 chain: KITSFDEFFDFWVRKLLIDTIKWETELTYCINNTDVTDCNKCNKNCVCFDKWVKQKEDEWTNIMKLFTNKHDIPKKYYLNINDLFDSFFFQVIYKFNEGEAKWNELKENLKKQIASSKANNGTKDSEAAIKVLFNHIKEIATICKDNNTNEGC
Briefly: crystal structure.

B1: mAb C74, recombinant IgG1 (antibody, V domains shown)
VH: EVQLVQSGGALVRPGGSLRLSCAASGFDFSDFEMNWVRQAPGKGLEWISYISKISAASFYADSVEGRFTISRDNTKNLLWLEMTSLRDEDTAVYYCARDLPGYLERVFDLWGQGTLVSVSS
VL: EIVLTQSPATLSLSPGEDATLSCRASQSVGSALAWYQHRPGQSPRLLIYDASTRATGIPARFSGSGSGTEFTLTVSSLTSEDFAVYYCQEYKNSVPPTWTFGQGTKVEIK
Turning to B1, the binding result is recorded as “binds” in experiment [1], “binds” in experiment [2] and “no binding (tested: 100 μg/mL)” in experiment [3].

B2: C74 Fab (Fab, V domains shown)
VH: EVQLVQSGGALVRPGGSLRLSCAASGFDFSDFEMNWVRQAPGKGLEWISYISKISAASFYADSVEGRFTISRDNTKNLLWLEMTSLRDEDTAVYYCARDLPGYLERVFDLWGQGTLVSVSS
VL: EIVLTQSPATLSLSPGEDATLSCRASQSVGSALAWYQHRPGQSPRLLIYDASTRATGIPARFSGSGSGTEFTLTVSSLTSEDFAVYYCQEYKNSVPPTWTFGQGTKVEIK
On to B2, for which the binding result in experiment [4] is reported as “binds”.

B3: mAb C7, recombinant IgG1 (antibody, V domains shown)
VH: EVQLVESGGGLAQPGGSLRLSCAASGFTFRDHGMTWVRQVSGKGLEWLSYITAGSKMSYYSDSVRGRFTISRDNAKNSLYLQMNGLTDEDSAIYYCVKGGGNCPSDTCYPSGYFGLDVWGQGTTVTVSS
VL: QSELTQPPSMSVSPGQTAMITCSMNKYSYISWYQQRPGQSPALVIYQDTRRPSGIPERFSGSNSENTAILTITGTRDLDEADYFCQGWDSNVKAVLFGGGTKLTVL
In the case of B3, the values for the binding result in experiment [1], in experiment [2] and in experiment [3] were “binds”, “binds” and “no binding (tested: 100 μg/mL)”, respectively.

B4: C7 Fab (Fab, V domains shown)
VH: EVQLVESGGGLAQPGGSLRLSCAASGFTFRDHGMTWVRQVSGKGLEWLSYITAGSKMSYYSDSVRGRFTISRDNAKNSLYLQMNGLTDEDSAIYYCVKGGGNCPSDTCYPSGYFGLDVWGQGTTVTVSS
VL: QSELTQPPSMSVSPGQTAMITCSMNKYSYISWYQQRPGQSPALVIYQDTRRPSGIPERFSGSNSENTAILTITGTRDLDEADYFCQGWDSNVKAVLFGGGTKLTVL
Regarding B4, the binding result in experiment [5], in experiment [4] and in experiment [6] was “binds” each time.
